Data from the supplement of paper PMC7125110.
± gives the standard error. For some assays here: Fewer inactive variants are shown than the library holds.

B1: glmS ribozyme (parent)
chain: AUAAAAGCGCCAGAACUACAGAAAUGUAGUUGACGAGGAGGAGGUUUAUCGAAUUUUCGGCGGAUGCCUCCAAA

Legend:
Details in all cases: with glucosamine-6-phosphate
glucosamine-6-phosphate [1] = variants of: B1; test: kcat; higher = faster cleavage; RNA array
Method in brief: (§1)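 kcat and KM were obtained from weighted Michaelis–Menten fits across concentrations of kobs values. Those came from one- or two-exponential decay fits to per-tile medians normalised to baseline and to non-cleaving reference variants. The variants were barcoded ribozymes transcribed in situ by E. coli RNA polymerase on sequenced MiSeq chips and tracked through a hybridised Cy3 probe at 37 °C, with 40 μM to 10 mM glucosamine-6-phosphate in HEPES/KCl/Mg(OAc)2 buffer flowed in.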

glucosamine-6-phosphate [2] = variants of: B1; test: KM; higher = weaker cofactor use; RNA array
Method in brief: as §1

glucosamine-6-phosphate [3] = variants of: B1; test: self-cleavage kobs at 40 uM GlcN6P; higher = faster cleavage; RNA array
Method in brief: as §1

glucosamine-6-phosphate [4] = variants of: B1; test: self-cleavage kobs at 160 uM GlcN6P; higher = faster cleavage; RNA array
Method in brief: as §1

glucosamine-6-phosphate [5] = variants of: B1; test: self-cleavage kobs at 640 uM GlcN6P; higher = faster cleavage; RNA array
Method in brief: as §1

glucosamine-6-phosphate [6] = variants of: B1; test: self-cleavage kobs at 10000 uM GlcN6P; higher = faster cleavage; RNA array
Method in brief: as §1

glucosamine-6-phosphate [7] = variants of: B1; test: self-cleavage kobs at 2500 uM GlcN6P; higher = faster cleavage; RNA array
Method in brief: as §1

Variant | kcat (glucosamine-6-phosphate [1]) [s⁻¹] | KM (glucosamine-6-phosphate [2]) [µM] | self-cleavage kobs at 40 uM GlcN6P (glucosamine-6-phosphate [3]) [s⁻¹] | self-cleavage kobs at 160 uM GlcN6P (glucosamine-6-phosphate [4]) [s⁻¹] | self-cleavage kobs at 640 uM GlcN6P (glucosamine-6-phosphate [5]) [s⁻¹] | self-cleavage kobs at 10000 uM GlcN6P (glucosamine-6-phosphate [6]) [s⁻¹] | self-cleavage kobs at 2500 uM GlcN6P (glucosamine-6-phosphate [7]) [s⁻¹]
A15U A39G | 0.00892 ± 0.0027 | 1830 ± 730 | 0.000203 ± 3.1e-05 | 0.000706 ± 0.00028 | 0.0023 ± 0.00069 | 0.00943 ± 0.0017 | 
A15G G29C | 0.00276 ± 0.00064 | 3540 ± 1400 | 3.64e-05 ± 1.1e-05 | 0.000187 ± 5.3e-05 | 0.000327 ± 7.2e-05 | 0.002 ± 0.00023 | 0.00156 ± 0.00032
A15C C61U | < 1e-05 |  | < 1e-05 | < 1e-05 | < 1e-05 |  | 
C16G G40A | 0.000334 ± 0.00011 |  |  |  | 0.000114 ± 2.6e-05 | 0.00027 ± 5.7e-05 | 0.000473 ± 0.00011
A15G C67G | 0.00126 ± 0.0001 | 2600 ± 330 |  | 7.63e-05 ± 1.2e-05 | 0.000243 ± 2.4e-05 | 0.000966 ± 0.00011 | 0.000654 ± 6.3e-05
A14U U69G | 3.85e-05 ± 7.5e-06 |  |  | 4.67e-05 ± 1.3e-05 |  | 3.9e-05 ± 8.1e-06 | 3.53e-05 ± 6.6e-06
A15U A52U C68A | 2.12e-05 ± 5.2e-06 |  |  |  |  | < 1e-05 | 
C16A G41A | 4e-05 ± 4.5e-07 | 806 ± 51 |  |  |  | 3.7e-05 ± 1.1e-05 | 
A15U C16U | 0.00176 ± 0.00028 | 1750 ± 440 | 4.63e-05 ± 9.6e-06 | 0.000152 ± 3.2e-05 | 0.000423 ± 9.6e-05 | 0.00172 ± 0.00026 | 0.000885 ± 0.00016
C16A U69G | 7.88e-05 ± 1.9e-05 |  |  |  | 7.48e-05 ± 1.5e-05 |  | 6.89e-05 ± 1.5e-05
C16A A42C | < 1e-05 |  | < 1e-05 | < 1e-05 |  | < 1e-05 | < 1e-05
C16A G29C | 0.00401 ± 0.0015 | 1940 ± 970 | 0.000114 ± 1.3e-05 | 0.000215 ± 4.5e-05 | 0.000949 ± 0.00011 | 0.00391 ± 0.00075 | 0.00217 ± 0.0003
A15G C50U | 9.75e-05 ± 1.3e-05 | 2370 ± 1000 |  |  |  | 8.01e-05 ± 1.2e-05 | 4.52e-05 ± 1.3e-05
A15G U69G | 7.83e-05 ± 1.2e-05 |  | 3.29e-05 ± 1.2e-05 | 5.34e-05 ± 2.7e-05 | 6.2e-05 ± 1.2e-05 | 7.05e-05 ± 9.2e-06 | 0.00012 ± 1.7e-05
A15C U56A G63C C70A | 5.44e-05 ± 1.8e-05 |  |  | 5.41e-05 ± 2.2e-05 |  |  | 7.34e-05 ± 3.6e-05
A15C A52U | 0.000104 ± 4.8e-06 | 1830 ± 260 |  |  |  | 8.65e-05 ± 1.9e-05 | 6.2e-05 ± 1.7e-05

Variant | kcat (glucosamine-6-phosphate [1]) [s⁻¹] | KM (glucosamine-6-phosphate [2]) [µM] | self-cleavage kobs at 40 uM GlcN6P (glucosamine-6-phosphate [3]) [s⁻¹] | self-cleavage kobs at 160 uM GlcN6P (glucosamine-6-phosphate [4]) [s⁻¹] | self-cleavage kobs at 640 uM GlcN6P (glucosamine-6-phosphate [5]) [s⁻¹] | self-cleavage kobs at 10000 uM GlcN6P (glucosamine-6-phosphate [6]) [s⁻¹] | self-cleavage kobs at 2500 uM GlcN6P (glucosamine-6-phosphate [7]) [s⁻¹]
C16G A33G | < 1e-05 |  | < 1e-05 |  |  |  | 
A14U U65G | 0.00172 ± 0.00014 | 2120 ± 250 | 2.77e-05 ± 8e-06 | 0.000118 ± 1.7e-05 | 0.000431 ± 4.8e-05 | 0.00144 ± 0.00018 | 0.000875 ± 0.00012
A15C A53G | 0.0101 ± 0.0037 | 3060 ± 1500 | 0.000195 ± 2e-05 | 0.000515 ± 8.7e-05 | 0.00139 ± 0.00015 | 0.00839 ± 0.00094 | 0.00454 ± 0.00066
A15C G41C | 3.33e-05 ± 2.9e-06 | 1850 ± 570 |  |  |  | 2.79e-05 ± 1.2e-05 | 
A15C A39U | 0.00476 ± 0.00092 | 2170 ± 610 | 0.000106 ± 1.2e-05 | 0.000264 ± 5e-05 | 0.000744 ± 0.00036 | 0.00417 ± 0.00045 | 0.00216 ± 0.00041
A15C U54C | 0.00621 ± 0.0013 | 1740 ± 510 | 0.000176 ± 2.3e-05 | 0.000481 ± 8.7e-05 | 0.00131 ± 0.00024 | 0.00556 ± 0.00077 | 0.00384 ± 0.00078
A15G A48C | 0.000466 ± 1.6e-05 | 2830 ± 210 |  | 2.29e-05 ± 1.1e-05 | 9.04e-05 ± 1.7e-05 | 0.000365 ± 3.6e-05 | 0.000212 ± 3.2e-05
C16A G66U | 0.000122 ± 3.2e-05 | 8450 ± 4000 |  |  |  | 6.63e-05 ± 1.5e-05 | 2.61e-05 ± 1.2e-05
C16A A48U | < 1e-05 | 163 ± 44 | < 1e-05 | < 1e-05 |  |  | 
A15U A39G C71G | 0.000145 ± 6.1e-05 |  |  |  | 0.000116 ± 3.5e-05 | 0.000288 ± 0.0001 | 9.89e-05 ± 3.7e-05
A15U C50U | 2.32e-05 ± 2.6e-06 |  |  |  |  |  | 
A15U U54G U65G | 0.000547 ± 5.8e-05 | 1670 ± 300 |  |  | 0.000149 ± 2.4e-05 | 0.00045 ± 0.00011 | 0.00039 ± 0.00013
C16A C71A | 0.000128 ± 2e-05 |  |  | 3.26e-05 ± 1.3e-05 | 7.22e-05 ± 1.1e-05 | 0.000114 ± 1.2e-05 | 0.000187 ± 3.1e-05
C16A C70A | 3.47e-05 ± 1.4e-05 |  |  |  | 3.14e-05 ± 1.6e-05 |  | 6.59e-05 ± 2.4e-05
A15G A39G | 0.024 ± 0.0095 |  | 0.0013 ± 0.00018 | 0.00251 ± 0.00078 | 0.0174 ± 0.0035 | 0.0199 ± 0.0048 | 0.037 ± 0.017
